Assay results taken from article PMC3857783, “Human Fanconi Anemia Complementation Group A Protein Stimulates the 5’ Flap Endonuclease Activity of FEN1” (PLoS ONE, 2013).

Molecular target: Flap endonuclease 1 (FEN1) (human (endogenous in RA3087 cells), UniProt P39748-1 1-380)
Assay: cell-based or functional assay

Sequence of Flap endonuclease 1 (FEN1) (P39748 whole entry): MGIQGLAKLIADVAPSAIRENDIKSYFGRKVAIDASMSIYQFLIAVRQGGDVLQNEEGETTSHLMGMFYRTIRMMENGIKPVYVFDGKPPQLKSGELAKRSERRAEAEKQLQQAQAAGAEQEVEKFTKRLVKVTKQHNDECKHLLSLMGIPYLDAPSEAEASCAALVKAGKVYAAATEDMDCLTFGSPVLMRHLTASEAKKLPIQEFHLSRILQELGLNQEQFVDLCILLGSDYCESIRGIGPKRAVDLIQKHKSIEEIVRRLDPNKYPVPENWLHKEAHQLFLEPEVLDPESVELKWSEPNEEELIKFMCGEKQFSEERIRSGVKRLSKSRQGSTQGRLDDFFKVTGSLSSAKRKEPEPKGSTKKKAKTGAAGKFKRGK

B1: FLAG-FANCA (human Fanconi anemia complementation group A protein) (natural protein, UniProt O15360-1 1-1455, looked up)
chain: MSDSWVPNSASGQDPGGRRRAWAELLAGRVKREKYNPERAQKLKESAVRLLRSHQDLNALLLEVEGPLCKKLSLSKVIDCDSSEAYANHSSSFIGSALQDQASRLGVPVGILSAGMVASSVGQICTAPAETSHPVLLTVEQRKKLSSLLEFAQYLLAHSMFSRLSFCQELWKIQSSLLLEAVWHLHVQGIVSLQELLESHPDMHAVGSWLFRNLCCLCEQMEASCQHADVARAMLSDFVQMFVLRGFQKNSDLRRTVEPEKMPQVTVDVLQRMLIFALDALAAGVQEESSTHKIVRCWFGVFSGHTLGSVISTDPLKRFFSHTLTQILTHSPVLKASDAVQMQREWSFARTHPLLTSLYRRLFVMLSAEELVGHLQEVLETQEVHWQRVLSFVSALVVCFPEAQQLLEDWVARLMAQAFESCQLDSMVTAFLVVRQAALEGPSAFLSYADWFKASFGSTRGYHGCSKKALVFLFTFLSELVPFESPRYLQVHILHPPLVPGKYRSLLTDYISLAKTRLADLKVSIENMGLYEDLSSAGDITEPHSQALQDVEKAIMVFEHTGNIPVTVMEASIFRRPYYVSHFLPALLTPRVLPKVPDSRVAFIESLKRADKIPPSLYSTYCQACSAAEEKPEDAALGVRAEPNSAEEPLGQLTAALGELRASMTDPSQRDVISAQVAVISERLRAVLGHNEDDSSVEISKIQLSINTPRLEPREHMAVDLLLTSFCQNLMAASSVAPPERQGPWAALFVRTMCGRVLPAVLTRLCQLLRHQGPSLSAPHVLGLAALAVHLGESRSALPEVDVGPPAPGAGLPVPALFDSLLTCRTRDSLFFCLKFCTAAISYSLCKFSSQSRDTLCSCLSPGLIKKFQFLMFRLFSEARQPLSEEDVASLSWRPLHLPSADWQRAALSLWTHRTFREVLKEEDVHLTYQDWLHLELEIQPEADALSDTERQDFHQWAIHEHFLPESSASGGCDGDLQAACTILVNALMDFHQSSRSYDHSENSDLVFGGRTGNEDIISRLQEMVADLELQQDLIVPLGHTPSQEHFLFEIFRRRLQALTSGWSVAASLQRQRELLMYKRILLRLPSSVLCGSSFQAEQPITARCEQFFHLVNSEMRNFCSHGGALTQDITAHFFRGLLNACLRSRDPSLMVDFILAKCQTKCPLILTSALVWWPSLEPVLLCRWRRHCQSPLPRELQKLQEGRQFASDFLSPEAASPAPNPDWLSAAALHFAIQQVREENIRKQLKKLDCEREELLVFLFFFSLMGLLSSHLTSNSTTDLPKAFHVCAAILECLEKRKISWLALFQLTESDLRLGRLLLRVAPDQHTRLLPFAFYSLLSYFHEDAAIREEAFLHVAVDMYLKLVQLFVAGDTSTVSPPAGRSLELKGQGNPVELITKARLFLLQLIPRCPKKSFSHVAELLADRGDCDPEVSAALQSRQQAAPDADLSQEPHLF
How did the “stimulation of FEN1 5' flap endonuclease activity on the 15-nt DNA flap (2 nM substrate, 0.2 nM purified FEN1) by purified His6-FANCA at 2.5, 5, 10 nM; fold over FEN1 alone” value turn out when B1 was run?
Its value is 4.5 fold.

And the “stimulation of FEN1 5' flap endonuclease activity on the 15-nt RNA flap (2 nM substrate, 0.1 nM purified FEN1) by purified His6-FANCA at 2.5, 5, 10 nM; fold over FEN1 alone” value?
Its value is 8 fold.
